According to patent publication US10040826:

How the values were obtained:
A244 Δ11 gp120 (HIV-1) [1] = test: SPR; 17b flowed over A244gD- d11 (batch 110608) held on immobilised A32 (A32-triggered Env); response axis in RU
A244 Δ11 gp120 (HIV-1) [2] = test: SPR; 17b flowed over A244gD- d11 (batch 110608) held on immobilised sCD4 (sCD4-triggered Env); response axis in RU
A244 Δ11 gp120 (HIV-1) [3] = test: SPR; 17b flowed over A244gD- d11 (batch 110608) held on immobilised sCD4 (sCD4-triggered Env)
A244 Δ11 gp120 (HIV-1) [4] = test: SPR; 17b flowed over A244gD- d11 (batch 110608) held on immobilised T8 (T8-triggered Env); response axis in RU
A244 Δ11 gp120 (HIV-1) [5] = test: SPR; 17b flowed over A244gD- d11 (batch 110608) held on immobilised A32 (A32-triggered Env)
A244 Δ11 gp120 (HIV-1) [6] = test: SPR; A244 gp120 gD- Δ11 293T monomer batch 110608 flowed over immobilised T8; ratio to ConS gp140
A244 Δ11 gp120 (HIV-1) [7] = test: SPR; A244 gp120 gD- Δ11 293T monomer batch 110608 flowed over immobilised T8; response axis in RU
[8] = target: A244 gDΔ11 gp120 (Herpes simplex virus; HIV-1); test: SPR
A244 Δ11 gp120 (HIV-1) [9] = test: SPR
[10] = target: A244 gDΔ11 gp120 (Herpes simplex virus; HIV-1); test: SPR, mAb captured on anti-Fc surface, monomeric gp120 as analyte
[11] = target: A244 gp120 (no modifications) (HIV-1); test: as above
A244 Δ11 gp120 (HIV-1) [12] = test: as above
A244 Δ11 gp120 (HIV-1) [13] = test: SPR titration, binding to CH01 mAb; A244 gDneg D11 at [10], [25], [50], [75], [100], unit inferred
[14] = target: A244 gDΔ11 gp120 (Herpes simplex virus; HIV-1); test: SPR titration, binding to CH01 mAb; A244 gD+ 293Tmon at [5] to [100], unit inferred; footnote: '* Fit deviation, need to lower Ag density'
[15] = target: A244 gp120 (no modifications) (HIV-1); test: SPR titration, binding to CH01 mAb; A244 gDneg at [10] to [100], unit inferred; the sheet prints a slash where a decimal point is meant (kd/ka as printed gives 3.1 µM)
[16] = target: A244 gDΔ11 gp120 (Herpes simplex virus; HIV-1); test: Kd table; row AE.A244 gp120, column CH01 gD+; method not given
[17] = target: MN gp120 (no modifications) (HIV-1); test: Kd table; row B.MN gp120, column CH01 gD-; method not given
[18] = target: MN gDΔ11 gp120 (Herpes simplex virus; HIV-1); test: Kd table; row B.MN gp120, column CH01 gD+; method not given
[19] = target: A244 gDΔ11 gp120 (Herpes simplex virus; HIV-1); test: SPR titration, binding to CH01 mAb; A244 gD+ 293Tmon at [5], [10], [25], [50], [100], unit inferred
[20] = target: A244 gp120 (no modifications) (HIV-1); test: SPR titration, binding to CH01 mAb; A244 gDneg at [10] to [100], unit inferred
A244 Δ11 gp120 (HIV-1) [21] = test: SPR titration, binding to CH01 mAb; A244 gDneg D11 at [10] to [100], unit inferred
[22] = target: A244 gp120 (no modifications) (HIV-1); test: Kd table; row AE.A244 gp120, column CH01 gD-; method not given
A244 Δ11 gp120 (HIV-1) [23] = test: SPR blocking on immobilized A244 Δ11 gp120, mAb injected to near saturation, then RV144 vaccinee IgG; against 7B2 control
[24] = target: A244 gp120 (no modifications) (HIV-1); test: SPR titration, binding to CH01 mAb; A244 gDneg at [10], [25], [50], [75], [100], unit inferred
[25] = target: A244 gDΔ11 gp120 (Herpes simplex virus; HIV-1); test: SPR titration, binding to CH01 mAb; A244 gD+ 293Tmon at [5] to [100], unit inferred
[26] = target: MN gp120 (no modifications) (HIV-1); test: Kd table; row B.MN gp120, column PG9 gD-; method not given
[27] = target: A244 gp120 (no modifications) (HIV-1); test: Kd table; row AE.A244 gp120, column PG9 gD-; method not given
A244 Δ11 gp120 (HIV-1) [28] = test: SPR titration, binding to PG9 mAb (IAVI PG9); A244 gDneg D11 at [10] to [100], unit inferred
[29] = target: A244 gDΔ11 gp120 (Herpes simplex virus; HIV-1); test: SPR titration, binding to PG9 mAb (IAVI PG9); A244 gD+293Tmon at [10] to [40], unit inferred
[30] = target: MN gDΔ11 gp120 (Herpes simplex virus; HIV-1); test: Kd table; row B.MN gp120, column PG9 gD+; method not given
[31] = target: A244 gDΔ11 gp120 (Herpes simplex virus; HIV-1); test: SPR titration, binding to PG9 mAb (IAVI PG9); A244 gD+293Tmon at [10], [20], [30], [40], unit inferred
[32] = target: 92TH023 gDΔ11 gp120 (Herpes simplex virus; HIV-1); test: Kd table; row AE.92TH023 gp120, column PG9 gD+; method not given
A244 Δ11 gp120 (HIV-1) [33] = test: SPR titration, binding to PG9 mAb (IAVI PG9); A244 gDneg D11 at [10], [25], [50], [75], [100], unit inferred
[34] = target: A244 gDΔ11 gp120 (Herpes simplex virus; HIV-1); test: Kd table; row AE.A244 gp120, column PG9 gD+; method not given
[35] = target: MN-rgp120 (RV144 vaccine immunogen) (Herpes simplex virus; HIV-1); test: SPR, mAb captured on anti-Fc surface, gp120 as analyte (FIG. 28)
[36] = target: MN-rgp120 (RV144 vaccine immunogen) (Herpes simplex virus; HIV-1); test: SPR; 19b captured on anti-Fc surface, RV144 MN-rgp120 injected at 0.5-5 µg/mL; fitted curves
[37] = target: A244-rgp120 (RV144 vaccine immunogen) (Herpes simplex virus; HIV-1); test: SPR; 19b captured on anti-Fc surface, RV144 A244-rgp120 injected at 0.5-5 µg/mL; fitted curves [lower row]
A244 Δ11 gp120 (HIV-1) [38] = test: SPR titration, binding to CH03 mAb; A244 gDneg D11 at [10], [25], [50], [75], [100], unit inferred
A244 Δ11 gp120 (HIV-1) [39] = test: SPR titration, binding to CH03 mAb; A244 gDneg D11 at [10] to [100], unit inferred
[40] = target: A244 gp120 (no modifications) (HIV-1); test: SPR titration, binding to CH03 mAb; A244 gDneg at [10] to [100], unit inferred

CCR5 receptor gp120 binding site mAb 17b (antibody)
Req (A244 Δ11 gp120 (HIV-1) [1]): 529
Req (A244 Δ11 gp120 (HIV-1) [2]): 166
17b binding ratio (A244 Δ11 gp120 (HIV-1) [3]): 0.316
Req (A244 Δ11 gp120 (HIV-1) [4]): -169
17b binding ratio (A244 Δ11 gp120 (HIV-1) [5]): 0.327

T8 (C1 mAb) (antibody)
Relative Binding Env/ConS gp140 (A244 Δ11 gp120 (HIV-1) [6]): 2.88
Req (A244 Δ11 gp120 (HIV-1) [7]): 1250

V2 mAb 830A (antibody)
fold more avid than to unmodified A244 gp120 [8]: 5 fold
fold more avid than to unmodified A244 gp120 (A244 Δ11 gp120 (HIV-1) [9]): 5 fold
Kd [10]: 1.7 nM
koff [10]: 7e-05 s⁻¹
kon [10]: 41100 M⁻¹ s⁻¹
Kd [11]: 10.2 nM
koff [11]: 0.00022 s⁻¹
kon [11]: 21800 M⁻¹ s⁻¹
Kd (A244 Δ11 gp120 (HIV-1) [12]): 1.56 nM
koff (A244 Δ11 gp120 (HIV-1) [12]): 8.8e-05 s⁻¹
kon (A244 Δ11 gp120 (HIV-1) [12]): 59900 M⁻¹ s⁻¹

V2V3 bnAb CH01 (antibody)
kon (A244 Δ11 gp120 (HIV-1) [13]): 31100 M⁻¹ s⁻¹
Kd [14]: 290 nM
Kd [15]: 3100 nM
Kd [16]: 200 nM
Kd [17]: 457 nM
Kd [18]: 288 nM
kon [19]: 9800 M⁻¹ s⁻¹
koff [20]: 0.00237 s⁻¹
Kd (A244 Δ11 gp120 (HIV-1) [21]): 430 nM
koff (A244 Δ11 gp120 (HIV-1) [21]): 0.0135 s⁻¹
Kd [22]: 2100 nM
percent blocking of RV144 vaccinee IgG binding (A244 Δ11 gp120 (HIV-1) [23]): 24.6%
fold faster association rate than with unmodified gp120 [8]: 10 fold
fold higher affinity than for unmodified A244 gp120 [8]: 5 fold
fold faster association rate than with unmodified gp120 (A244 Δ11 gp120 (HIV-1) [9]): 10 fold
fold higher affinity than for unmodified A244 gp120 (A244 Δ11 gp120 (HIV-1) [9]): 5 fold
kon [24]: 760 M⁻¹ s⁻¹
koff [25]: 0.0028 s⁻¹
Kd [10]: 278 nM
koff [10]: 0.0099 s⁻¹
kon [10]: 37200 M⁻¹ s⁻¹
Kd [11]: 1640 nM
koff [11]: 0.00438 s⁻¹
kon [11]: 3730 M⁻¹ s⁻¹
Kd (A244 Δ11 gp120 (HIV-1) [12]): 317 nM
koff (A244 Δ11 gp120 (HIV-1) [12]): 0.0156 s⁻¹
kon (A244 Δ11 gp120 (HIV-1) [12]): 49000 M⁻¹ s⁻¹

V2V3 bnAb PG9 (antibody)
Kd [26]: 347 nM
Kd [27]: 1100 nM
Kd (A244 Δ11 gp120 (HIV-1) [28]): 88.7 nM
koff (A244 Δ11 gp120 (HIV-1) [28]): 0.00102 s⁻¹
Kd [29]: 62.7 nM
koff [29]: 0.00105 s⁻¹
Kd [30]: 542 nM
kon [31]: 16800 M⁻¹ s⁻¹
fold higher affinity than for unmodified A244 gp120 [8]: 3 fold
fold higher affinity than for unmodified A244 gp120 (A244 Δ11 gp120 (HIV-1) [9]): 3 fold
Kd [32]: 212 nM
kon (A244 Δ11 gp120 (HIV-1) [33]): 11500 M⁻¹ s⁻¹
Kd [10]: 48.1 nM
koff [10]: 0.00055 s⁻¹
kon [10]: 11500 M⁻¹ s⁻¹
Kd [11]: 183 nM
koff [11]: 0.0011 s⁻¹
kon [11]: 5000 M⁻¹ s⁻¹
Kd (A244 Δ11 gp120 (HIV-1) [12]): 52.6 nM
koff (A244 Δ11 gp120 (HIV-1) [12]): 0.00057 s⁻¹
kon (A244 Δ11 gp120 (HIV-1) [12]): 10900 M⁻¹ s⁻¹
Kd [34]: 128 nM

V3 mAb 19b (antibody)
fold lower Kd than for A244-rgp120 [35]: 5 fold
Kd [36]: 3.4 nM
Kd [37]: 15.3 nM
Kd [10]: 8.24 nM
koff [10]: 0.0014 s⁻¹
kon [10]: 170000 M⁻¹ s⁻¹
Kd [11]: 11.8 nM
koff [11]: 0.00154 s⁻¹
kon [11]: 130000 M⁻¹ s⁻¹
Kd (A244 Δ11 gp120 (HIV-1) [12]): 6.54 nM
koff (A244 Δ11 gp120 (HIV-1) [12]): 0.00156 s⁻¹
kon (A244 Δ11 gp120 (HIV-1) [12]): 239000 M⁻¹ s⁻¹

VRC01 (CD4 bs mAb) (antibody)
Kd [10]: 15.8 nM
koff [10]: 0.00021 s⁻¹
kon [10]: 13300 M⁻¹ s⁻¹
Kd [11]: 15.7 nM
koff [11]: 0.00028 s⁻¹
kon [11]: 17600 M⁻¹ s⁻¹
Kd (A244 Δ11 gp120 (HIV-1) [12]): 36.7 nM
koff (A244 Δ11 gp120 (HIV-1) [12]): 0.00039 s⁻¹
kon (A244 Δ11 gp120 (HIV-1) [12]): 9700 M⁻¹ s⁻¹

mAb CH03 (V2,V3 conformational) (antibody)
kon (A244 Δ11 gp120 (HIV-1) [38]): 27000 M⁻¹ s⁻¹
Kd (A244 Δ11 gp120 (HIV-1) [39]): 620 nM
koff (A244 Δ11 gp120 (HIV-1) [39]): 0.0167 s⁻¹
Kd [40]: 5500 nM
koff [40]: 0.0055 s⁻¹
